Data as given in IntAct's records for PubMed 18940604.

B1: Ras-related protein Rab-3A (Mus musculus), P63011 (parent)
chain: MASATDSRYGQKESSDQNFDYMFKILIIGNSSVGKTSFLFRYADDSFTPAFVSTVGIDFKVKTIYRNDKRIKLQIWDTAGQERYRTITTAYYRGAMGFILMYDITNEESFNAVQDWSTQIKTYSWDNAQVLLVGNKCDMEDERVVSSERGRQLADHLGFEFFEASAKDNINVKQTFERLVDVICEKMSESLDTADPAVTGAKQGPQLTDQQAPPHQDCAC
partner: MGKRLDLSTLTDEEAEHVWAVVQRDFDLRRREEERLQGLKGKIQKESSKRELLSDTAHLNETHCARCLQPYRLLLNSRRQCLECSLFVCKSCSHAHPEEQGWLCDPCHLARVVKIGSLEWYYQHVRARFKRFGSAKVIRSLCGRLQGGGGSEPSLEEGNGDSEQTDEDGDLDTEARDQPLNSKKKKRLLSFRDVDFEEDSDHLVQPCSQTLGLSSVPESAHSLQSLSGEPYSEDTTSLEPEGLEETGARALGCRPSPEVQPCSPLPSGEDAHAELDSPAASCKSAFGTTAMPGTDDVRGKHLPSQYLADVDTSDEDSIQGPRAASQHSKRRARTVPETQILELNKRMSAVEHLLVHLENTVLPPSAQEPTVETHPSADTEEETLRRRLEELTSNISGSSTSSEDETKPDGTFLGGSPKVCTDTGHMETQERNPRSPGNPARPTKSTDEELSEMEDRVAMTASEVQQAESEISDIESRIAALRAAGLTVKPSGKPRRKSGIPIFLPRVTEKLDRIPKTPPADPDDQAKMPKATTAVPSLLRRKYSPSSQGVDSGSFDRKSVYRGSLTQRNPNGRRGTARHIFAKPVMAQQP
B2: Ras-related protein Rab-27A (Mus musculus), Q9ERI2 (parent)
chain: MSDGDYDYLIKFLALGDSGVGKTSVLYQYTDGKFNSKFITTVGIDFREKRVVYRANGPDGAVGRGQRIHLQLWDTAGQERFRSLTTAFFRDAMGFLLLFDLTNEQSFLNVRNWISQLQMHAYCENPDIVLCGNKSDLEDQRAVKEEEARELAEKYGIPYFETSAANGTNISHAIEMLLDLIMKRMERCVDKSWIPEGVVRSNGHTSADQLSEEKEKGLCGC
partner: B1 partner

Variants of: B1
Conditions: with melph_mouse Mlph

Variant	effect of a mutation on the interaction
F19Y	disrupting interaction
F19Y;G94D	disrupting interaction
G94D	disrupting interaction
I87L;Y91F;G94D	disrupting interaction

Variants of: B2
Conditions: with melph_mouse Mlph

Variant	effect of a mutation on the interaction
Y6F	disrupting interaction
Y6F;L84I;F88Y;D91G	disrupting interaction
